Data on one molecule can be found in publication PMC7763485, “Quantifying the Monomer–Dimer Equilibrium of Tubulin with Mass Photometry” (Journal of Molecular Biology, 2020).

This experiment deals with β-tubulin (porcine, UniProt P02554 1-445). Briefly: mass photometry; label-free, in free solution; tubulin diluted in BRB80 buffer to 1 to 60 nM total monomer, no added GTP; 20 min equilibration after dilution (also measured immediately after dilution); Kd computed from counts of monomers and dimers in each single distribution; heterodimer to monomers. To be noted: both partners purified.
Chain of β-tubulin (P02554 whole entry): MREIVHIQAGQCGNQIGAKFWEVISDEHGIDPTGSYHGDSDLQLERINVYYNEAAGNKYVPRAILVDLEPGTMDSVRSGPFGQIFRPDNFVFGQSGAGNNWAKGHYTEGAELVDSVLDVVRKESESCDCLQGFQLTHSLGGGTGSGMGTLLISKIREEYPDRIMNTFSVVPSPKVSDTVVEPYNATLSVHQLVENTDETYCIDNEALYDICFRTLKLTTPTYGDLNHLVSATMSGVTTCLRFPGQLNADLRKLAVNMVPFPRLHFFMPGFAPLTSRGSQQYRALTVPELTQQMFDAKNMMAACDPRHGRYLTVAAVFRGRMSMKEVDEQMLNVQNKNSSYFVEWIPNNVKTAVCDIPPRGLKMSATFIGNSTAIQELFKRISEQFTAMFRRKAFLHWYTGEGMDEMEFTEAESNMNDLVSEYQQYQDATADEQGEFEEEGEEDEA

B1: α-tubulin (natural protein)
chain: MRECISIHVGQAGVQIGNACWELYCLEHGIQPDGQMPSDKTIGGGDDSFNTFFSETGAGKHVPRAVFVDLEPTVIDEVRTGTYRQLFHPEQLITGKEDAANNYARGHYTIGKEIIDLVLDRIRKLADQCTGLQGFSVFHSFGGGTGSGFTSLLMERLSVDYGKKSKLEFSIYPAPQVSTAVVEPYNSILTTHTTLEHSDCAFMVDNEAIYDICRRNLDIERPTYTNLNRLIGQIVSSITASLRFDGALNVDLTEFQTNLVPYPRAHFPLATYAPVISAEKAYHEQLSVAEITNACFEPANQMVKCDPRHGKYMACCLLYRGDVVPKDVNAAIATIKTKRTIQFVDWCPTGFKVGINYEPPTVVPGGDLAKVQRAVCMLSNTTAIAEAWARLDHKFDLMYAKRAFVHWYVGEGMEEGEFSEAREDMAALEKDYEEVGVDSVEGEGEEEGEEY
modifications: Brain-purified isotype mixture, isotype not named; TUBA1A taken as representative by convention. Native brain PTMs are likely but not specified. GTP at the non-exchangeable site as purified; the …
As for B1, the “dimer:monomer ratio at 60 nM total tubulin” value was approximately 2.
